According to the supplement of paper PMC9732359:
± gives the uncertainty stated by the source.

Assay: protein stability index of a GFP-peptide fusion (yeast GPS) (PSI 1-4); higher = more stable; sorted into four equal gates, so the index is relative within each strain
Method in brief: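 Mid-log yeast cultures in leucine-free medium, carrying a pooled plasmid library, were sorted into four equal gates by their GFP/Cherry fluorescence ratio. Each plasmid expressed Cherry along with GFP fused upstream of a tiled 17-residue yeast protein peptide. Plasmids recovered from each gate were PCR-amplified and Illumina-sequenced, with reads assigned to strains by barcodes. The protein stability index was obtained by summing each gate's read frequency weighted by its gate number.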

Row | Sequence | protein stability index (doa10∆) | protein stability index (pdr5∆) | protein stability index (san1∆) | protein stability index (ubr1∆)
1 | LGINLVTADTVILFDSD [ISW2] | 2.53 ± 0.1 | 2.65 ± 0.086 | 2.51 ± 0.16 | 2.94 ± 0.06
2 | ARIIAAIPNPEDVVAIS [RPS0A] | 1.8 ± 0.071 | 2.14 ± 0.083 | 2.34 ± 0.091 | 2.31 ± 0.083
3 | FICSIIQTVVISLLALP [YML031W/NDC1] | 1.43 ± 0.11 | 1.36 ± 0.076 | 1.34 ± 0.11 | 2.12 ± 0.11
4 | LVEAAKLLKIPKFISEA [YDL116W/NUP84] | 2.65 ± 0.081 | 2.61 ± 0.064 | 2.46 ± 0.088 | 2.76 ± 0.042
5 | SDAEEEEGEYKNAANTE [ISW2] | 3.06 ± 0.14 | 3.44 ± 0.14 | 3 ± 0.17 | 3.3 ± 0.093
6 | QRRSWRQYVGQLAPSSV [DIS3] | 2.06 ± 0.077 | 2.45 ± 0.18 | – | 2.36 ± 0.078
7 | LEQQKQPTGLLKGLNGF [YMR153W/NUP53] | 3.53 ± 0.12 | 3.46 ± 0.11 | 3.18 ± 0.11 | 3.34 ± 0.074
8 | IFKGIGGNFKDLSTLVH [GAL11] | 2.07 ± 0.071 | 1.74 ± 0.042 | 1.83 ± 0.073 | 1.85 ± 0.067
9 | TLFCCLLRSRLATRRVL [RPO21] | 1.31 ± 0.068 | 1.22 ± 0.06 | 1.15 ± 0.15 | 1.2 ± 0.05
10 | ANVPSTATTGKRKPAKS [RPN4] | 2.64 ± 0.073 | 2.88 ± 0.082 | 2.64 ± 0.05 | 2.8 ± 0.05
11 | SLVALGIDPQDLKKLNL [CDC53] | 2.84 ± 0.068 | 2.72 ± 0.066 | 2.79 ± 0.049 | 2.25 ± 0.04
12 | AGCKIDNVDDIGEFNVS [YDL088C/ASM4] | 3.25 ± 0.11 | 2.8 ± 0.097 | 2.94 ± 0.096 | 3.06 ± 0.14
13 | GNGEGLGGDSDEANIEI [BRN1] | 3.11 ± 0.17 | 3.48 ± 0.27 | 2.95 ± 0.17 | –
14 | ASYLTPLLEAKKLVWPL [SSN2] | 2.13 ± 0.14 | 2.04 ± 0.066 | 2.86 ± 0.15 | 2.71 ± 0.084
15 | MNGNTNANTVFAGSNNQ [YOR098C/NUP1] | 2.63 ± 0.12 | 3.27 ± 0.12 | 3.31 ± 0.16 | 3.26 ± 0.085
16 | QHYKNNSISSQPASYHS [SSN2] | 2.56 ± 0.058 | 3.03 ± 0.067 | 3.05 ± 0.065 | 2.78 ± 0.057
17 | CYPQFAERDSQGGFYKQ [UBP6] | 3.31 ± 0.065 | 3.28 ± 0.064 | 3.12 ± 0.058 | 3.21 ± 0.044
18 | STFRLNLSVTSPYNADF [RPO21] | 2.21 ± 0.05 | 2.34 ± 0.054 | 2.6 ± 0.075 | 2.93 ± 0.044
19 | SFILYYRRALQSSESFD [YML103C/NUP188] | 1.79 ± 0.055 | 2.11 ± 0.067 | 1.98 ± 0.072 | 2.27 ± 0.052
20 | INSTKNGKDNNNESNKN [MED2] | 3.08 ± 0.052 | 3.15 ± 0.045 | 3.22 ± 0.038 | 3.19 ± 0.033
21 | LWDQDIAIAGTGQIEGL [COR1] | 3.12 ± 0.089 | 3.37 ± 0.077 | 3.05 ± 0.055 | 2.98 ± 0.05
22 | FRKVKLRVDEVQGKNLL [RPS1B] | 3.25 ± 0.1 | 3.35 ± 0.15 | – | 3.28 ± 0.074
23 | KPEIDENGTLLVPPPRT [RPR2] | 3.02 ± 0.048 | 3.15 ± 0.051 | 2.99 ± 0.036 | 2.987 ± 0.029
24 | AIPNSIIKRSNGQSLSP [YMR153W/NUP53] | 2.14 ± 0.12 | 2.68 ± 0.049 | 2.71 ± 0.061 | 2.69 ± 0.037
25 | LTKTTVNISAVDNTTEQ [YCG1] | 3.25 ± 0.11 | 3.29 ± 0.14 | 2.88 ± 0.1 | 3.24 ± 0.098
26 | KVEIKKVNSRDDSFFNE [PRP28] | 3.16 ± 0.082 | 3.31 ± 0.082 | 2.71 ± 0.092 | 3.38 ± 0.12
27 | LLVFRNADLDLDEMELH [YDL116W/NUP84] | 3.01 ± 0.074 | 2.45 ± 0.073 | 3.01 ± 0.054 | 2.73 ± 0.047

Row | Sequence | protein stability index (doa10∆) | protein stability index (pdr5∆) | protein stability index (san1∆) | protein stability index (ubr1∆)
28 | KREGRNELQEERLKVPI [POP6] | – | 3.37 ± 0.2 | – | –
29 | PNLIEKMVAKGLNDLVE [BRR2] | 2.51 ± 0.17 | 2.82 ± 0.21 | – | 2.99 ± 0.18
30 | LRSIYHQFHDILEEKTD [NSL1] | 2.22 ± 0.062 | 2.07 ± 0.047 | 2.18 ± 0.074 | 2.04 ± 0.04
31 | IPISSETTIDDLPISST [SMC1] | 2.68 ± 0.047 | 2.72 ± 0.061 | 2.68 ± 0.047 | 2.99 ± 0.041
32 | VNYNSDMIKCFLPKLNS [NUT1] | 2.66 ± 0.13 | 1.98 ± 0.12 | 2.06 ± 0.13 | 1.27 ± 0.066
33 | NNTNNNNTNTGASGVDD [SWI1] | 2.75 ± 0.073 | 2.95 ± 0.065 | 3.05 ± 0.072 | 3.3 ± 0.048
34 | VDTSTELESMLEDLKNT [RRP6] | 3.56 ± 0.24 | 3.03 ± 0.14 | 3.46 ± 0.11 | 3.13 ± 0.054
35 | WTEASSSGAGTVKLYLP [ECM29] | 2.05 ± 0.052 | 1.82 ± 0.047 | 2.09 ± 0.067 | 2.02 ± 0.05
36 | CIFGDAFDVDRAKSCGV [RPL1A] | 3.01 ± 0.073 | 2.75 ± 0.084 | 2.57 ± 0.11 | 2.59 ± 0.081
37 | KSSWRQEWLANLKLISV [SIR4] | 1.71 ± 0.057 | 1.45 ± 0.042 | 1.64 ± 0.16 | 1.46 ± 0.045
38 | STLTTISGNPPLLYNSL [SRB5] | 2.66 ± 0.043 | 2.46 ± 0.038 | 2.49 ± 0.043 | 2.56 ± 0.036
39 | NGLAIRRAAYGVVRYVM [RPS3] | 2.06 ± 0.057 | 1.91 ± 0.064 | 1.77 ± 0.074 | 1.61 ± 0.053
40 | QELKADSPFSLICQNNL [SRP72] | 2.53 ± 0.078 | 2.56 ± 0.064 | 2.66 ± 0.054 | 2.85 ± 0.049
41 | RLTAKRLIEHDPVEGNL [SRP14] | 2 ± 0.066 | 2.29 ± 0.052 | 1.93 ± 0.1 | 2.16 ± 0.045
42 | PDTSNEICDLAYQYVRA [SRB2] | 2.83 ± 0.046 | 2.93 ± 0.04 | 2.95 ± 0.046 | 3 ± 0.041
43 | SIDDHPYNLNLFPNELY [RPC31] | 2.14 ± 0.048 | 2.53 ± 0.061 | 2.69 ± 0.088 | 2.68 ± 0.064
44 | HNKLIQFGNACISLSGV [SSN2] | 2.45 ± 0.11 | 2.84 ± 0.14 | 2.73 ± 0.075 | 2.67 ± 0.13
45 | MKLVPSIPPATIETFNE [RPB5] | 2.41 ± 0.053 | 2.41 ± 0.06 | 2.11 ± 0.051 | 2.57 ± 0.049
46 | CYAPRPSAGPHKLRESL [RPS4A] | 2.78 ± 0.083 | 3.12 ± 0.091 | 2.87 ± 0.11 | 3.07 ± 0.072
47 | AYVAIEQVKDDGTSTEK [RPN8] | 2.48 ± 0.16 | 1.73 ± 0.13 | 3.23 ± 0.15 | 2.64 ± 0.085
48 | INSAPDFTQEDELRKQE [ISW2] | 3.24 ± 0.084 | 3.52 ± 0.068 | 3.4 ± 0.062 | 3.46 ± 0.057
49 | LSEIESLDEILLPANLL [SRP68] | 3.14 ± 0.053 | 3.08 ± 0.052 | 3.02 ± 0.042 | 3.037 ± 0.027
50 | RARVTKDLVEIKKEEGK [RPN5] | – | 3.42 ± 0.18 | 3.33 ± 0.17 | 3.59 ± 0.077
51 | EHKSQVVLYNYYLGQYY [CSN12] | 2.23 ± 0.12 | 1.81 ± 0.13 | 2.71 ± 0.086 | 2.03 ± 0.055
52 | RLASEPGIISITSLQDS [YMR129W/POM152] | 2.94 ± 0.1 | 2.34 ± 0.077 | 2.96 ± 0.083 | 1.82 ± 0.051
53 | NGWEKYLHNVELGEKKN [ISW2] | 1.7 ± 0.087 | 1.8 ± 0.14 | 1.65 ± 0.16 | 2.56 ± 0.092
54 | VYAFKAKNKSTRINGLN [REC8] | 1.53 ± 0.1 | 1.65 ± 0.094 | 1.77 ± 0.19 | 1.59 ± 0.12
